Reference: patent publication US6849727
No end group written: not given here.

Tests used:
[1] = molecular target: rat spinal cord membrane receptor; assay: competition binding, rat spinal cord membranes (SEM 0; may be a floor value)
[2] = molecular target: rat neuropeptide FF receptor (NPFF1) (rat) (UniProt Q9EP86); assay: competition vs [125I]D-Tyr-NPFF, COS-7 membranes (SEM 0; may be a floor value)
[3] = molecular target: rat spinal cord membrane receptor; assay: competition binding, rat spinal cord membranes

Sequence of rat neuropeptide FF receptor (NPFF1) (rat) (Q9EP86 whole entry): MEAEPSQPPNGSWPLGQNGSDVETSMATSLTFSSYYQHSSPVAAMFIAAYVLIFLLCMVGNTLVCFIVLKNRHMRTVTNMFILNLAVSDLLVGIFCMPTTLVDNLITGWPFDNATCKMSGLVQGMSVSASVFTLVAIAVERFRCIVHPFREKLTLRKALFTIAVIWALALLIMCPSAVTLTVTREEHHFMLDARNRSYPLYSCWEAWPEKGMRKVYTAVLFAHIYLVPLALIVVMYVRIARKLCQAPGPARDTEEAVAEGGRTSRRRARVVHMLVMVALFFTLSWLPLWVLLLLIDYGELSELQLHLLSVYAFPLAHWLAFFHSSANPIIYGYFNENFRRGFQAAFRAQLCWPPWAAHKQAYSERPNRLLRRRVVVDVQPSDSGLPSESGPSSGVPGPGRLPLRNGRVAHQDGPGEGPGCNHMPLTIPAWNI

| Molecule | pKi [1] | pKi [2] | pKi [3] |
| --- | --- | --- | --- |
| Met5-Arg6-Phe7-Enk-OH (peptide) | 5 | 5 | – |
| Tyr-MIF-1 (peptide) | – | 5 | – |
| rat NPFF (FLFQPQRF-NH2) (peptide) | – | – | 9.05 |
| AGEGLSSPFWSLAAPQRF-NH2 [rat A-18-F-amide (…-NH2)] | – | – | 9 |
| H-KNQFIRF-NH2 [AF-1 (FMRF-like peptide H2N-Lys-Asn-Gln-Phe-Ile-Arg-Phe-NH2)] | – | – | 7.56 |
| H-KHQYLRF-NH2 [AF-2 (H-Lys-His-Gln-Tyr-Leu-Arg-Phe-NH2)] | – | – | 7.96 |
| PDVDHVFLRF-NH2 [Schisto(FLRFNH2) (Pro-Asp-Val-Asp-His-Val-Phe-Leu-Arg-Phe-amide)] | – | – | 6.39 |
